Numbering of substitutions follows the chain as printed. No end group written: not given here. fluorescein = fluorescein label attached to the Cys side chain

One test addresses T1, TmrAB R121A^TmrB (Thermus thermophilus, UniProt Q72J05 1-600; Q72J04 1-578, R121A).
T1 construct: TmrA, Thermus thermophilus, the chain of TmrAB with the canonical Walker B motif; TmrB, Thermus thermophilus, the chain of TmrAB with the non-canonical Walker B motif
T1 sequence 1: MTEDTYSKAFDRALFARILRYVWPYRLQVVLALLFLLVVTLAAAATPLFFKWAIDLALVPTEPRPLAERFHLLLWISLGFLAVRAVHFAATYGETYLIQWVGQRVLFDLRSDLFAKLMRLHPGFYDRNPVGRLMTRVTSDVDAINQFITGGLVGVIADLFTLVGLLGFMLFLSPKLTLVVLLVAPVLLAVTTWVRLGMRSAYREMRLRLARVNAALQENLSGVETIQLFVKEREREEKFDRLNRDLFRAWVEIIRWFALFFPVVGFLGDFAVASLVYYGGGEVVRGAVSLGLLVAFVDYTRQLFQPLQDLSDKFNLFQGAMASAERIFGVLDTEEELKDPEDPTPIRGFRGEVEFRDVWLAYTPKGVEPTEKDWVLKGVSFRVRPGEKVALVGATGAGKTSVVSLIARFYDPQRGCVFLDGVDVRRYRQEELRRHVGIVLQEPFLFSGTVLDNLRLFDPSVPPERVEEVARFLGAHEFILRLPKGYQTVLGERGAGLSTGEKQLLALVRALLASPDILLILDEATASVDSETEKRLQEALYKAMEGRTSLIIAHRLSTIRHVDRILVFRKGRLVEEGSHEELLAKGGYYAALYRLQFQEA
T1 sequence 2: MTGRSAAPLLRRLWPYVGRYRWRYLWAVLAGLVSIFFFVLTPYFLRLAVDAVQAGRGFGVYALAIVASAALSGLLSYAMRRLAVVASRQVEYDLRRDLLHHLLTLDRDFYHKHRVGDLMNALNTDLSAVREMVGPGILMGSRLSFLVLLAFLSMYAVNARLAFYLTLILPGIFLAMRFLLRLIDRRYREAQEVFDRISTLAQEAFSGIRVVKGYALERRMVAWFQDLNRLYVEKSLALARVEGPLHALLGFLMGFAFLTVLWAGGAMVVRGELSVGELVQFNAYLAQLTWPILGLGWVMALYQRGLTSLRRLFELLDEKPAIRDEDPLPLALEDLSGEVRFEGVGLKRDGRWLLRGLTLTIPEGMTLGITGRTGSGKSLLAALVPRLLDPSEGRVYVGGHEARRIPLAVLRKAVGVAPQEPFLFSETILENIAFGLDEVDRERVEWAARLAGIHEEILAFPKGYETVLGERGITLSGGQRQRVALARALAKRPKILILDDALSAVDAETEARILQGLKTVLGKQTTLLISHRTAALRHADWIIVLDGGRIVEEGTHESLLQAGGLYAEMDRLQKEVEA
Description: fluorescence polarisation; 1.7 uM TmrAB with 50 nM RRY(C^Fluorescein)KSTEL in SEC buffer (20 mM HEPES, 150 mM NaCl, pH 7, 0.05% ß-DDM), 15 minutes on ice, in the absence or presence of 5 mM ATP and 10 mM MgCl2; read at 25°C (the results say 4°C); signal normalized to WT without ATP. The note with it: both partners purified. Background: In fluorescence polarisation assays a small probe gives low polarisation when free and higher when bound to something large.

The target of a further test is T2, TmrAB D140A^TmrA (Thermus thermophilus, UniProt Q72J05 1-600; Q72J04 1-578, D140A).
T2 construct: TmrA, Thermus thermophilus, the chain of TmrAB with the canonical Walker B motif; TmrB, Thermus thermophilus, the chain of TmrAB with the non-canonical Walker B motif
T2 sequence 1: T1 sequence 1 with D140A
T2 sequence 2: T1 sequence 2 with A121R
Described as above. The note with it: both partners purified.

B1: fluorescent transport substrate peptide RRY(C^Fluorescein)KSTEL (peptide)
peptide: RRYC(fluorescein)KSTEL
notes: fluorescein-labelled transport substrate peptide of TmrAB; also called fluorescently-labeled peptide substrate; peptide substrate; source: bought: Genscript
B1: the binding result with TmrAB R121A^TmrB and in the test with TmrAB D140A^TmrA was “binds” throughout.

These data come from publication doi:10.1101/2020.01.12.903617, “The peptide sensor motif stabilizes the outward-facing conformation of TmrAB” (bioRxiv, 2020).
